Target: T1, IL13Rα2 on U251-LG target cells (UniProt Q14627 27-380, limits assumed)
T1 sequence (looked up): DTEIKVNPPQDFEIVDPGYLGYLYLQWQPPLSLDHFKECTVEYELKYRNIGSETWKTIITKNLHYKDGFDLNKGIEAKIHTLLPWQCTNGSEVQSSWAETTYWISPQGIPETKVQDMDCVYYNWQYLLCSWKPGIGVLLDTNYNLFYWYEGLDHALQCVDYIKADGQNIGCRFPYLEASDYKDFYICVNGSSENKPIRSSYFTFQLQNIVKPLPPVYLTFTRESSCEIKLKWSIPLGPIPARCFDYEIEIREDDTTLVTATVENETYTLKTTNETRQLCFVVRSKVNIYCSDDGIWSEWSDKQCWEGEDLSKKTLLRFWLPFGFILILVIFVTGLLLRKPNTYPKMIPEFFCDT
Assay: cell-based or functional assay

B1: anti-IL13Rα2 CAR VLVH (murine) (other)
chain: DIVMTQSHKFISTSVGDRVSITCKASQDVGTAVAWYQQIPGQSPKLLIYSASYRSTGIPDRFTGSGSGTDFSFIISSVQAEDLALYYCQHHYSAPWTFGGGTTLDIKGGGGSGGGGSGGGGSEVQLVESGGDLVRPGGSLQLSCAASGFTFSRNGMSWVRQTPDRRLEWVATVSSGGSYIYYADSVKGRFTISRDNARNTLYLQMSSLKSEDTAMYYCARQGTTALATRFFDVWGAGTTVTVSSFVPVFLPAKPTTTPAPRPPTPAPTIASQPLSLRPEACRPAAGGAVHTRGLDFACDIYIWAPLAGTCGVLLLSLVITLYCNHRNKRGRKKLLYIFKQPFMRPVQTTQEEDGCSCRFPEEEEGGCELRVKFSRSADAPAYQQGQNQLYNELNLGRREEYDVLDKRRGRDPEMGGKPRRKNPQEGLYNELQKDKMAEAYSEIGMKGERRRGKGHDGLYQGLSTATKDTYDALHMQALPPR
- killing efficiency (lysis of target cells by luciferase activity, 24 h co-culture, effector-to-target ratio 2:1): > 90%
